According to the Immune Epitope Database (IEDB):

Assays:
Experiment in all cases: IEDB peptide-MHC binding, purified MHC/competitive/radioactivity; filed as Kd, often an IC50 or EC50 that approximates it; ≥ and ≤ were set here for values at or beyond the usual limits of such assays
HLA-A*02:06 = target: HLA-A*02:06
HLA-A*02:03 = target: HLA-A*02:03
HLA-A*02:02 = target: HLA-A*02:02
[1] = source organism: Vaccinia virus WR
[2] = source organism: SARS coronavirus Tor2

Sequence | Kd (HLA-A*02:06; [1]) [µM] | Kd (HLA-A*02:03; [1]) [µM] | Kd (HLA-A*02:02; [1]) [µM] | Kd (HLA-A*02:06; [2]) [µM] | Kd (HLA-A*02:03; [2]) [µM] | Kd (HLA-A*02:02; [2]) [µM]
KTIISEEYL | 0.15 | 1.22 | 0.916 | – | – | –
SMYVIPDELI | 0.492 | 0.114 | 0.0307 | – | – | –
VQSVLRDISI | 0.132 | 0.541 | 0.0779 | – | – | –
SLKRFTHTTA | 7.32 | 0.726 | 0.884 | – | – | –
LIANIFTPLV | – | – | – | 0.0157 | 0.0134 | 0.000398
YVVVHGYFT | – | – | – | 0.171 | 0.792 | 0.342
ELTNKKYRCM | ≥ 69.8 | ≥ 70.4 | ≥ 70 | – | – | –
PTPKKMNIVT | ≥ 69.8 | ≥ 55.7 | ≥ 65.8 | – | – | –
PLIISTDQDT | ≥ 47.4 | ≥ 35.6 | ≥ 45 | – | – | –
ELKDLLNVT | ≥ 38.4 | 0.209 | 1.54 | – | – | –
RVTTELNIV | 0.0457 | 0.116 | 2.46 | – | – | –
FLLFLVLIML | – | – | – | 2.92 | 1.38 | 1.57
TINALVYFST | ≥ 62.2 | 7.34 | 14.1 | – | – | –
YIAGLKIEEI | 0.134 | 0.0053 | 0.00892 | – | – | –
SIRCVKYLL | 2.88 | 0.0557 | 0.107 | – | – | –
SLGKSPLPSL | 1.43 | 0.0468 | 0.00407 | – | – | –
DLDKVYEIL | ≥ 53.7 | ≥ 26.3 | 19.6 | – | – | –
VQTLISLNSM | 0.853 | 5.82 | 1.56 | – | – | –
YVIPDELIDV | 0.0123 | 0.0139 | 0.0181 | – | – | –
NACDKHNKT | 18.6 | 9.25 | 17.9 | – | – | –
IVNTTYDFLA | 0.956 | 8.27 | 1.25 | – | – | –
LLLEWLAEVV | – | – | – | 0.000525 | 0.000813 | 0.00031
RVTKRDESSI | ≥ 22.2 | 10.7 | 12.3 | – | – | –
AMLKSKNINI | 0.2 | 0.223 | 1.65 | – | – | –
NVSRVVECL | 1.03 | 0.938 | 0.133 | – | – | –
FIQWTGGNI | 5.91 | 0.0547 | 0.683 | – | – | –
TLVKSGLTEV | 0.0451 | 0.00293 | 0.0641 | – | – | –
